Data taken from article PMC4142144 (Molecular cell, 2014).

B1: 2CARD^RIG-I(E52A)-CARD^MAVS(KKK) fusion protein, 42 aa linker (other)
chain: MTTEQRRSLQAFQDYIRKTLDPTYILSYMAPWFREEEVQYIQAEKNNKGPMAAATLFLKFLLELQEEGWFRGFLDALDHAGYSGLYEAIESWDFKKIEKLEEYRLLLKRLQPEFKTRIIPTDIISDLSECLINQECEEILQICSTKGMMAGAEKLVECLLRSDKENWPKTLKLALEKERNKFSELWIVMPFAEDKTYKYICRNFSNFCNVKVVKILPYLPCLTARDQDRLRATCTLSGNRDTLWHLFNTLQRRPGWVEYFIAALRGCKLVDLADEVASVYQSYQP
B2: 2CARD^RIG-I(E52A) (domain or fragment, human, UniProt O95786 1-188, looked up)
chain: MTTEQRRSLQAFQDYIRKTLDPTYILSYMAPWFREEEVQYIQAEKNNKGPMAAATLFLKFLLELQEEGWFRGFLDALDHAGYSGLYEAIESWDFKKIEKLEEYRLLLKRLQPEFKTRIIPTDIISDLSECLINQECEEILQICSTKGMMAGAEKLVECLLRSDKENWPKTLKLALEKERNKFSELWIV

Legend:
SEC-MALS = molecular target: the molecule itself; experiment: SEC-MALS
mono-ubiquitin = mono-ubiquitin (UniProt P0CG48 1-76); experiment: crystal structure

Binder | stoichiometry N (SEC-MALS) | binding result (mono-ubiquitin)
B1 | 4 | 
B2 |  | binds
